Test results reported in paper PMC7237485.

Target: HA-tagged WT WD40 (FBW7ΔDF) (human) (UniProt Q969H0)

## Merkel cell polyomavirus small T antigen, wild type (natural protein)
  LT protein turnover (t1/2) in a cycloheximide chase, 293 cells co-transfected with LT and sT; FBW7 is that of the cells, not the ΔDF construct: > 10 h
